Results from patent publication US11858972B2, “Micropeptides and uses thereof” (FUNDACIÓ PRIVADA INSTITUT D'INVESTIGACIÓ ONCOLÒGICA DE VALL …, priority 2018, dated 2024).

How the values were obtained:
[1] = tested on: Lung cancer cell line A549; test: Cell proliferation assay (growth curve, 14 days); format: cell-based, human; details: A549, monitored for 14 days, vs control vector
From the text: (§1) FIG. 8. SEQ ID NO: 1 overexpression reduces cell proliferation. A549 and H10 cells were transduced with an inducible lentivirus coding HA-SEQ ID NO: 1. SEQ ID NO: 1 expression was induced by doxycycline treatment for 14 days. (A) Growth curve of transduced cells over 14 days of SEQ ID NO:1 expression. (B) Cell cycle analysis by flow cytometry. Left, histogram plots. Right, quantification of the number of cells in every cell cycle phase. Graphs show the mean±SD, using at least 3 technical replicates. **** P<0.0001, two-tailed t-test.
(§2) A549 and H10 cell lines were dissociated by trypsin digestion and seeded into 24-well cell culture plates at density 5×10^3 cells/well. Every two days, cells were dissociated from wells and counted using a Neubauer chamber. Cell growth curves were monitored for 14 days.

A549 cancer cells = test: Invasion assay (Boyden chamber, Matrigel); format: cell-based, human; details: A549, after 4 days of doxycycline induction, 24 h invasion
Experimental: FIG. 9. SEQ ID NO: 1 overexpression impairs invasiveness and reduces mesenchymal traits in A549 and H10 cell lines. Invasion of indicated cells was analyzed in matrigel-coated inserts. (A) The undersides of membrane inserts containing invaded cells were fixed and stained with crystal violet and photographed 24 h after plating. (B) Number of invasive cells was calculated using ImageJ software. Bars plots show relative number of cells invading the chamber. (C) Analysis of several mesenchymal genes by qPCR. mRNA expression is shown relative to the control. * P<0.05, **P<0.01 two-tailed t-test.
BxPC-3, MDA-MB-231, A549 and H10 cell lines were trypsinized, counted, and 20.000 cells/well were seeded in triplicate in a Corning® cell culture insert (Boyden chamber) in which the porous membrane is coated with a layer of Matrigel® to mimic an extra cellular matrix (ECM). Cells were allowed to invade through the coated membrane for 24 hours in the cell incubator at 37° C. After the incubation time, culture inserts were fixed in methanol 5 minutes at RT and stained using Crystal Violet 20 minutes at RT. The excess of Crystal Violet staining was removed washing with PBS and pictures of the chambers were taken using an Olympus CeIIR microscope. Invading cells were counted using ImageJ and fold change was calculated normalizing to the control.

BxPC-3 cells [2] = test: SA-β-gal staining assay; format: cell-based; details: BxPC-3, doxycycline-treated vs untreated
From the text: (§3) FIG. 5. Micropeptide of sequence SEQ ID NO: 1 overexpression induces cell cycle arrest and cellular senescence. BxPC-3 cells were transduced with an inducible lentivirus coding HA-SEQ ID NO: 1. Micropeptide of sequence SEQ ID NO: 1 expression was induced by doxycycline treatment for 4 days. (A) Phase contrast images of SEQ ID NO:1-expressing cells and control cells. (B) Cell viability analysis by CellTiter-Glo assay. (C) Cell cycle analysis by flow cytometry. Left, histogram plots. Right, quantification of the number of cells in every cell cycle phase (D) Analysis of p27 and p21 expression by qPCR. (E) Western Blot of the indicated cells using anti-HA and anti-p21 antibodies. (F) Quantification of the number of SA-β-Gal positive cells in doxycycline-treated and untreated cells. (G) Representative pictures of the cell quantified in (F). Graphs show the mean±SEM, using at least 3 technical replicates. **P<0.01 ***P<0,001 **** P<0.0001, two-tailed t-test.
For SA-β-gal staining, cells were fixed and stained using a commercial senescence β-galactosidase staining kit (Cell Signalling) following manufacture's protocol.

BxPC-3 cells [3] = test: Drug sensitivity assay, cell viability by crystal violet; format: cell-based; parameters: cell death induced by Doxorubicin: dose or concentration left out as unconfirmed; details: days 2 to 4
Experimental: FIG. 6. Micropeptide of sequence SEQ ID NO: 1 expression induces cell death upon cellularstress. SkBR-3, HPAF II, MIA PaCa-2 and BxPC-3 cells were infected with empty or SEQ ID NO: 1-HA retroviruses, and selected by puromycin. Micropeptide of sequence SEQ ID NO: 1 expression was analyzed by qPCR (A) and by Western blot (B). (C) Phase contrast images of the indicated cells 3 days after selection with puromycin. […] (E) BXPC-3 cells were infected with an inducible lentivirus encoding SEQ ID NO: 1-HA, and selected with Neomycin. Micropeptide of sequence SEQ ID NO: 1 expression was induced by doxycycline, and cells were treated with Doxorubicin or Actinomycin D. (E) Cell viability of the indicated cells measured by crystal violet staining. For drug sensitivity assays, doxycycline induction was coupled with Doxorubicin ([…]) or Actinomycin D (5 nM) (from days 2 to 4), and cell viability was measured by staining with crystal violet.

H10 cells = test: Cell cycle analysis by flow cytometry; format: cell-based
From the text: as §1
(§4) Micropeptide of SEQ ID NO: 1 expression was induced in BxPC3 cells by treatment with doxycycline (2 μg/ml) for 4 days. Cells were fixed using 100% ethanol at 4° C., stained with Propidium Iodide, and cell cycle was analysed by flow cytometry (LSR-Fortessa cytometer). Cell viability in micropeptide of SEQ ID NO: 1-expressing cells was evaluated using CellTiter-Glo 2.0 (Promega) following manufacturer's instructions.

[4] = tested on: CDK inhibitors p27 and p21; test: p27 and p21 expression by qPCR and Western Blot in BxPC-3; format: cell-based; details: BxPC-3, doxycycline-induced expression
From the text: as §3
Total RNA was extracted with Trizol® and treated with TURBO™ DNase following provider's recommendations. 1 μg of RNA was retrotranscribed using iScript™ cDNA Synthesis Kit (BioRad). Gene expression was analysed by quantitative real time PCR using PowerUp SYBR Green Master Mix (Thermo Fisher Scientific) in the 7900HT Fast Real-Time PCR System (Applied Biosystems). Cycle threshold (Ct) values were normalized to GAPDH. […]

[5] = tested on: squamous cell carcinoma cell line H10; test: Cell proliferation assay (growth curve, 14 days); format: cell-based; details: H10, monitored for 14 days, vs control vector
From the text: as §1, §2

A549 cells = test: Cell cycle analysis by flow cytometry; format: cell-based, human
From the text: as §1, §4

[6] = tested on: BxPC-3 pancreatic cancer cell line; test: Cell cycle analysis by flow cytometry; format: cell-based; details: BxPC-3, expression induced by doxycycline for 4 days
From the text: as §3, §4

B1: SEQ ID NO: 1: highly conserved 87 aa micropeptide coded by the lncRNA TINCR; predicted ubiquitin-like protein (protein, listed as Homo sapiens)
chain: MEGLRRGLSRWKRYHIKVHLADEALLLPLTVRPRDTLSDLRAQLVGQGVSSWKRAFYYNARRLDDHQTVRDARLQDGSVLLLVSDPR
- growth rate [1]: consistently lower growth rate
- invasion (A549 cancer cells): significant decrease in invasion
- number of senescent cells (SA-β-Gal-positive cells) (BxPC-3 cells [2]): increase
- cell death induced by Actinomycin D (BxPC-3 cells [3]; BxPC-3, doxycycline induction coupled with Actinomycin D (5 nM)): sensitizes to cell death
- cell death induced by Doxorubicin (BxPC-3 cells [3]; BxPC-3, doxycycline induction coupled with Doxorubicin): sensitizes to cell death
- cells arrested in G1 phase (H10 cells): increase in cells arrested in G1 phase
- expression of the CDK inhibitors p27 and p21 [4]: upregulation
- growth rate [5]: consistently lower growth rate
- cells arrested in G1 phase (A549 cells): increase in cells arrested in G1 phase
- cell cycle [6]: induces cell cycle arrest in G1 phase
